In the test the target is endogenous αIIbβ3 integrin receptor of activated platelets (human (endogenous in platelets)) (UniProt P08514).

RGDS [RGDS peptide] came in with a reduction of adhesion of TRAP-activated platelets to fibrinogen-coated wells (1 µM peptide, compared to N-PTB^D66E) of 7%.

The values are drawn from article PMC2778132.
